Measured values published in patent publication US20220204580A1 (AstraZeneca / MedImmune, published 2022).
Numbered stars: 1 amine (or outer) side, 2 acyl side, 3 side chain; on linkers, the order of the positions; unused ones are H or OH. Bridge positions count the residues as written; N and C are the ends. Square brackets hold non-standard residues; d marks the D form. Side chains are listed from the residue outwards. Ends that are not written are not given here. * marks the point of attachment. C18 diacid = O=C(O)CCCCCCCCCCCCCCCCC(=O)*; γGlu = O=C(O)[C@H](CCC(=O)[*:2])N[*:1]; αMeF = C[C@](N)(Cc1ccccc1)C(=O)O; Aib = CC(C)(N)C(=O)O

T1: human amylin receptor (calcitonin receptor co-expressed with receptor activity modifying protein, RAMP3) (human, UniProt P30988 25-474; O60896 24-148)
T1 sequence (looked up) 1: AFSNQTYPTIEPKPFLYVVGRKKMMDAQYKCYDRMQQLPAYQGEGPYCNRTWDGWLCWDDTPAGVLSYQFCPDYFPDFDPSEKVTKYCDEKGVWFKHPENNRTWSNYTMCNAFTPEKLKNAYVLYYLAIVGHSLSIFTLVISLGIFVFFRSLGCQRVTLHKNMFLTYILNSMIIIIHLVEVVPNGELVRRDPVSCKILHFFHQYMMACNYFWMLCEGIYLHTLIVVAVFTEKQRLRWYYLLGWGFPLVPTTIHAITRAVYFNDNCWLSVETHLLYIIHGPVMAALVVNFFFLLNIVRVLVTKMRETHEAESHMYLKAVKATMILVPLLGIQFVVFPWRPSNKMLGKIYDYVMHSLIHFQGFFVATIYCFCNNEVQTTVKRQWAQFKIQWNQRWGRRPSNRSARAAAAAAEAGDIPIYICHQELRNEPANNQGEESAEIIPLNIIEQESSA
T1 sequence (looked up) 2: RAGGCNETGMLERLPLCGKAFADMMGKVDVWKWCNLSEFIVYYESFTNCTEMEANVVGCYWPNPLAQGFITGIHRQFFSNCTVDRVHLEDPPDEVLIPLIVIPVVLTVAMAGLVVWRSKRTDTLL

T2: human calcitonin receptor (human, UniProt P30988 25-474)
T2 sequence (looked up): T1 sequence (looked up) 1

T3: rat amylin receptor (calcitonin receptor co-expressed with receptor activity modifying protein, RAMP3) (rat, UniProt P32214 25-516; Q9JJ73 23-147)
T3 sequence (looked up) 1: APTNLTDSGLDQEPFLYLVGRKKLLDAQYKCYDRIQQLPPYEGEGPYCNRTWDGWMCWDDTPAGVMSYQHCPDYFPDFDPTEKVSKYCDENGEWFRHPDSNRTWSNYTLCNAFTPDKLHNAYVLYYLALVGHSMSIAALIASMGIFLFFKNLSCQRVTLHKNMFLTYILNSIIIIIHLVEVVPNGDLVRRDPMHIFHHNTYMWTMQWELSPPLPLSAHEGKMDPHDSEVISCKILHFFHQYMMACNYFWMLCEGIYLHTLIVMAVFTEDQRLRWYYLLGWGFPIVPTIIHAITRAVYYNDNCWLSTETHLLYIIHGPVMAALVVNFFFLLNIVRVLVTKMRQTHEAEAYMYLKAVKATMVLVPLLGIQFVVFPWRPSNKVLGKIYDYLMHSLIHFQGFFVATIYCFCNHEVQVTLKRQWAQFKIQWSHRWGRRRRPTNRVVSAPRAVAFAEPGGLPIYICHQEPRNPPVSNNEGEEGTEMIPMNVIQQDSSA
T3 sequence (looked up) 2: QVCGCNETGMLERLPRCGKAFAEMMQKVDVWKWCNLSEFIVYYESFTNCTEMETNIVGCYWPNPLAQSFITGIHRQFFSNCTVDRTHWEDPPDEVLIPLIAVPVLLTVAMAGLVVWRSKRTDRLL

T4: rat calcitonin receptor (rat, UniProt P32214 25-516)
T4 sequence (looked up): T3 sequence (looked up) 1

B1: Peptide 15 (SEQ ID NO: 15) (peptide)
peptide: K([γGlu-C18 diacid])KCNTATCATQRLANFLRHSSNN[αMeF]GPILPPTEVGSNTY-NH2
modifications: disulfide 3-8; N-terminus assumed
SMILES: CC[C@H](C)[C@H](NC(=O)[C@@H]1CCCN1C(=O)CNC(=O)[C@](C)(Cc1ccccc1)NC(=O)[C@H](CC(N)=O)NC(=O)[C@H](CC(N)=O)NC(=O)[C@H](CO)NC(=O)[C@H](CO)NC(=O)[C@H](Cc1c[nH]cn1)NC(=O)[C@H](CCCNC(=N)N)NC(=O)[C@H](CC(C)C)NC(=O)[C@H](Cc1ccccc1)NC(=O)[C@H](CC(N)=O)NC(=O)[C@H](C)NC(=O)[C@H](CC(C)C)NC(=O)[C@H](CCCNC(=N)N)NC(=O)[C@H](CCC(N)=O)NC(=O)[C@@H](NC(=O)[C@H](C)NC(=O)[C@@H]1CSSC[C@H](NC(=O)[C@H](CCCCN)NC(=O)[C@@H](N)CCCCNC(=O)CC[C@H](NC(=O)CCCCCCCCCCCCCCCCC(=O)O)C(=O)O)C(=O)N[C@@H](CC(N)=O)C(=O)N[C@@H]([C@@H](C)O)C(=O)N[C@@H](C)C(=O)N[C@@H]([C@@H](C)O)C(=O)N1)[C@@H](C)O)C(=O)N[C@@H](CC(C)C)C(=O)N1CCC[C@H]1C(=O)N1CCC[C@H]1C(=O)N[C@H](C(=O)N[C@@H](CCC(=O)O)C(=O)N[C@H](C(=O)NCC(=O)N[C@@H](CO)C(=O)N[C@@H](CC(N)=O)C(=O)N[C@H](C(=O)N[C@@H](Cc1ccc(O)cc1)C(N)=O)[C@@H](C)O)C(C)C)[C@@H](C)O
B2: Peptide 149 (SEQ ID NO: 149) (peptide)
peptide: K([γGlu-C18 diacid])CNTATCATQRLANFL[Aib]HSSNNFGPILPPTNVGSNTY-NH2
modifications: disulfide 2-7; N-terminus assumed
SMILES: CC[C@H](C)[C@H](NC(=O)[C@@H]1CCCN1C(=O)CNC(=O)[C@H](Cc1ccccc1)NC(=O)[C@H](CC(N)=O)NC(=O)[C@H](CC(N)=O)NC(=O)[C@H](CO)NC(=O)[C@H](CO)NC(=O)[C@H](Cc1c[nH]cn1)NC(=O)C(C)(C)NC(=O)[C@H](CC(C)C)NC(=O)[C@H](Cc1ccccc1)NC(=O)[C@H](CC(N)=O)NC(=O)[C@H](C)NC(=O)[C@H](CC(C)C)NC(=O)[C@H](CCCNC(=N)N)NC(=O)[C@H](CCC(N)=O)NC(=O)[C@@H](NC(=O)[C@H](C)NC(=O)[C@@H]1CSSC[C@H](NC(=O)[C@@H](N)CCCCNC(=O)CC[C@H](NC(=O)CCCCCCCCCCCCCCCCC(=O)O)C(=O)O)C(=O)N[C@@H](CC(N)=O)C(=O)N[C@@H]([C@@H](C)O)C(=O)N[C@@H](C)C(=O)N[C@@H]([C@@H](C)O)C(=O)N1)[C@@H](C)O)C(=O)N[C@@H](CC(C)C)C(=O)N1CCC[C@H]1C(=O)N1CCC[C@H]1C(=O)N[C@H](C(=O)N[C@@H](CC(N)=O)C(=O)N[C@H](C(=O)NCC(=O)N[C@@H](CO)C(=O)N[C@@H](CC(N)=O)C(=O)N[C@H](C(=O)N[C@@H](Cc1ccc(O)cc1)C(N)=O)[C@@H](C)O)C(C)C)[C@@H](C)O
B3: Peptide 20 (SEQ ID NO: 20) (peptide)
peptide: K([γGlu-γGlu-C18 diacid])CNTATCATQRLANFLRHSSNN[αMeF]GPILPPTNVGSNTY-NH2
modifications: disulfide 2-7; N-terminus assumed
SMILES: CC[C@H](C)[C@H](NC(=O)[C@@H]1CCCN1C(=O)CNC(=O)[C@](C)(Cc1ccccc1)NC(=O)[C@H](CC(N)=O)NC(=O)[C@H](CC(N)=O)NC(=O)[C@H](CO)NC(=O)[C@H](CO)NC(=O)[C@H](Cc1c[nH]cn1)NC(=O)[C@H](CCCNC(=N)N)NC(=O)[C@H](CC(C)C)NC(=O)[C@H](Cc1ccccc1)NC(=O)[C@H](CC(N)=O)NC(=O)[C@H](C)NC(=O)[C@H](CC(C)C)NC(=O)[C@H](CCCNC(=N)N)NC(=O)[C@H](CCC(N)=O)NC(=O)[C@@H](NC(=O)[C@H](C)NC(=O)[C@@H]1CSSC[C@H](NC(=O)[C@@H](N)CCCCNC(=O)CC[C@H](NC(=O)CC[C@H](NC(=O)CCCCCCCCCCCCCCCCC(=O)O)C(=O)O)C(=O)O)C(=O)N[C@@H](CC(N)=O)C(=O)N[C@@H]([C@@H](C)O)C(=O)N[C@@H](C)C(=O)N[C@@H]([C@@H](C)O)C(=O)N1)[C@@H](C)O)C(=O)N[C@@H](CC(C)C)C(=O)N1CCC[C@H]1C(=O)N1CCC[C@H]1C(=O)N[C@H](C(=O)N[C@@H](CC(N)=O)C(=O)N[C@H](C(=O)NCC(=O)N[C@@H](CO)C(=O)N[C@@H](CC(N)=O)C(=O)N[C@H](C(=O)N[C@@H](Cc1ccc(O)cc1)C(N)=O)[C@@H](C)O)C(C)C)[C@@H](C)O
B4: Peptide 140 (SEQ ID NO: 140) (peptide)
peptide: K([γGlu-C18 diacid])KCNTATCATQRLANFL[Aib]HSSNNFGPILPPTEVGSNTY-NH2
modifications: disulfide 3-8; N-terminus assumed
SMILES: CC[C@H](C)[C@H](NC(=O)[C@@H]1CCCN1C(=O)CNC(=O)[C@H](Cc1ccccc1)NC(=O)[C@H](CC(N)=O)NC(=O)[C@H](CC(N)=O)NC(=O)[C@H](CO)NC(=O)[C@H](CO)NC(=O)[C@H](Cc1c[nH]cn1)NC(=O)C(C)(C)NC(=O)[C@H](CC(C)C)NC(=O)[C@H](Cc1ccccc1)NC(=O)[C@H](CC(N)=O)NC(=O)[C@H](C)NC(=O)[C@H](CC(C)C)NC(=O)[C@H](CCCNC(=N)N)NC(=O)[C@H](CCC(N)=O)NC(=O)[C@@H](NC(=O)[C@H](C)NC(=O)[C@@H]1CSSC[C@H](NC(=O)[C@H](CCCCN)NC(=O)[C@@H](N)CCCCNC(=O)CC[C@H](NC(=O)CCCCCCCCCCCCCCCCC(=O)O)C(=O)O)C(=O)N[C@@H](CC(N)=O)C(=O)N[C@@H]([C@@H](C)O)C(=O)N[C@@H](C)C(=O)N[C@@H]([C@@H](C)O)C(=O)N1)[C@@H](C)O)C(=O)N[C@@H](CC(C)C)C(=O)N1CCC[C@H]1C(=O)N1CCC[C@H]1C(=O)N[C@H](C(=O)N[C@@H](CCC(=O)O)C(=O)N[C@H](C(=O)NCC(=O)N[C@@H](CO)C(=O)N[C@@H](CC(N)=O)C(=O)N[C@H](C(=O)N[C@@H](Cc1ccc(O)cc1)C(N)=O)[C@@H](C)O)C(C)C)[C@@H](C)O

molecular target: T1, human amylin receptor (calcitonin …); test: cell-based or functional assay

EC50 (cAMP production) | Ratio (EC50 hCTR / EC50 hAMYR3) | Binder
0.522 nM | 10 | B1
0.13 nM | 9.2 | B2
0.174 nM | 26 | B3
0.319 nM | 15 | K([γGlu-γGlu-C18 diacid])CNTATCATQRLANFLRHSSNN[αMeF]GPILPPTEVGSNTY-NH2 (disulfide 2-7) [Peptide 18 (SEQ ID NO: 18)]
0.656 nM | 9.2 | B4

molecular target: T2, human calcitonin receptor; test: cell-based or functional assay

EC50 (cAMP production) | Binder
5.46 nM | B1
1.2 nM | B2
4.59 nM | B3
4.69 nM | K([γGlu-γGlu-C18 diacid])CNTATCATQRLANFLRHSSNN[αMeF]GPILPPTEVGSNTY-NH2 (disulfide 2-7) [Peptide 18 (SEQ ID NO: 18)]
6.05 nM | B4

molecular target: T3, rat amylin receptor (calcitonin …); test: cell-based or functional assay

EC50 (cAMP production) | Binder
0.0103 nM | B1
0.0056 nM | B2
0.0104 nM | B3
0.0165 nM | K([γGlu-γGlu-C18 diacid])CNTATCATQRLANFLRHSSNN[αMeF]GPILPPTEVGSNTY-NH2 (disulfide 2-7) [Peptide 18 (SEQ ID NO: 18)]
0.0195 nM | B4

molecular target: T4, rat calcitonin receptor; test: cell-based or functional assay

EC50 (cAMP production) | Binder
1.82 nM | B1
0.522 nM | B2
1.85 nM | B3
3.09 nM | K([γGlu-γGlu-C18 diacid])CNTATCATQRLANFLRHSSNN[αMeF]GPILPPTEVGSNTY-NH2 (disulfide 2-7) [Peptide 18 (SEQ ID NO: 18)]
1.22 nM | B4
